Source: PMC9988344 (mAbs, 2023)

Experiments:
[1] = biological target: T1, human uPAR on the surface of MDA-MB-231 cells (Homo sapiens (endogenous, MDA-MB-231), UniProt Q03405); experiment: flow cytometry on cells
[2] = biological target: recombinant human soluble uPAR (suPAR) (human, UniProt Q03405, biotin (in the BLI experiments)); experiment: ELISA
[3] = biological target: cynomolgus monkey uPAR (Macaca fascicularis, UniProt Q9GK78); experiment: ELISA
[4] = biological target: T1, human uPAR on the surface of MDA-MB-231 …; experiment: cell-based or functional assay

Sequence of cynomolgus monkey uPAR (Q9GK78 23-305): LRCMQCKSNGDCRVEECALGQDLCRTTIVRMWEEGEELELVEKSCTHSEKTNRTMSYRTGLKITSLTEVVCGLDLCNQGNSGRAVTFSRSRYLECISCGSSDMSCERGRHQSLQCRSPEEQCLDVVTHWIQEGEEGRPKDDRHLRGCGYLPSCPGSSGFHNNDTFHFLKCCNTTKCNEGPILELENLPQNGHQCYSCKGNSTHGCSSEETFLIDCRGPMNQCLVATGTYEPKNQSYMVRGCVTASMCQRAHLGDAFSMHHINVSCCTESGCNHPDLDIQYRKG
Sequence of recombinant human soluble uPAR (suPAR) (Q03405 23-305): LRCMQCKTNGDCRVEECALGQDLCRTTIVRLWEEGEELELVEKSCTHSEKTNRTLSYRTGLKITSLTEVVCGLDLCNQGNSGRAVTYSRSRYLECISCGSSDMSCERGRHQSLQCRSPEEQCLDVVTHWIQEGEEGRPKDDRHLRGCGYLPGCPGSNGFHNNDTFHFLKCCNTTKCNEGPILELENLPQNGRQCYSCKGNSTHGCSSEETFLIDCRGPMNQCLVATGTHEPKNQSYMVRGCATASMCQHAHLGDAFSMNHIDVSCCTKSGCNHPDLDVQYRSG
T1 sequence (Q03405 23-305): as above

| EC50 [1] [nM] | EC50 [2] [nM] | EC50 [3] [nM] | ADCC against MDA-MB-231 cells with NK-92 MI CD16a effector cells, EC50 [4] [nM] | ADCC against MDA-MB-231 cells with NK-92 MI CD16a effector cells, Max% [4] [%] | ADCC against MDA-MB-231 cells with human PBMCs, EC50 [4] [nM] | ADCC against MDA-MB-231 cells with human PBMCs, Max% [4] [%] | Binder |
| --- | --- | --- | --- | --- | --- | --- | --- |
| 0.92 | 0.53 | 0.27 | 0.89 | 28.2 | 0.11 | 47.4 | anti-uPAR recombinant antibody 3159 (mouse/human chimeric IgG1) (antibody, V domains shown) VH: QVTLKESGPGILQSSLTLSLTCSLSGFSLSTSGMGVSWIRQPSGKGLEWLAHIYWDDDKRYNPSLKTRLTISKDASRDQVFLKIISVDTADTGTYYCGRRVRNYFSGTSYWYFDVWGTGTTVTVSS VL: DVLMTQTPLSLSVSLGDQASISCRSSQNILHRTGNTYLEWYLQKPGQSPKLLIYKVSNRFSGVPDRFSGSGSGTDFTLKISRLEAEDLGVYYCFQGSYVPFTFGSGTKLEMK |
| 2.07 | 0.52 | 0.18 | 5.59 | 27.2 | 0.35 | 52 | anti-uPAR recombinant antibody 11857 (mouse/human chimeric IgG1) (antibody, V domains shown) VH: EVQLRQSGPELVKPGASVKISCKASGYTFTDYYMNWVKQSHEKSLEWIGNINPNNGGTDYNQKFKGKATLTVDKSSSTAYMELRSLTSEDSAVYYCARSYGSRFPYWGLGTLVTVSA VL: DIQMTQTTSSLSASLGDRVTISCRASQDITNYLSWYQQKPDGTVKLLIFYTAVLQSGFPLRFSGSGSGADYSLTISNLEQEDFATYFCQQGHTLPWTFGGGTKLEIK |
| 0.69 | 0.41 | 0.15 | 1.14 | 18.8 | 0.09 | 57.5 | anti-uPAR recombinant antibody 8163 (mouse/human chimeric IgG1) (antibody, V domains shown) VH: EVQLVESGGGLVQPGESLTLSCDSNEFDFPSHDMSWVRKTPEKRLELVAAIDSDGGLTYYSNSRERRFIISRDNTKNTLYLQMRSLRSEDTALYYCARRRASYWYFDVWGTGTTVTVSS VL: DILLTQSPAILPVSPGERVSFSCRASQNIGTSIHWYQQRTNGSPRLLIKYASESISGIPSRFSGSGSGTDFTLSINGVESEDIGDYYCQQSNSWPTFGGGTKLEIK |
